Experimental data taken from article PMC3769986 (Soft matter, 2011).
Like-named read-outs stand apart in the source and are kept apart here.

What was measured:
[1] = target: the molecule itself; experiment: small angle neutron scattering
[2] = target: the molecule itself; experiment: small angle neutron scattering; remark: listed apart in the source

B1: 17H6 (other)
chain: MGHHHHHHHHHHSSGHIHMAAAQEAAAAQAAAQAEAAQAAQAAAQEAAAAQAAAQAEAAQAAQAAAQEAAAAQAAAQAEAAQAAQAAAQEAAAAQAAAQAEAAQAAQAAAQEAAAAQAAAQAEAAQAAQAAAQEAAAAQAAAQAEAAQAAQAGGYGGMG
stoichiometry N [1]: 266 ± 3 | stoichiometry N [2]: 171 ± 2
